Measured values from patent publication US20200002414A1 (published 2020).
Read-outs that look alike come from different tables or passages of the source.

Columns and labels:
[1] = target: T1, human Ror2 (human, UniProt Q01974 34-403, limits assumed); experiment: ELISA, human Ror2, pH 7.4
T1 construct: also called hROR2; receptor tyrosine kinase-like orphan receptor 2

[2] = target: T1, human Ror2; experiment: ELISA, human Ror2; ratio of signal at pH 6.0 to pH 7.4
[3] = target: T1, human Ror2; experiment: ELISA, human Ror2, pH 6.0
[4] = target: T1, human Ror2; experiment: ELISA, human Ror2, pH 6.0; remark: listed apart in the source
[5] = target: T1, human Ror2; experiment: ELISA, human Ror2, pH 7.4; remark: listed apart in the source
[6] = target: T1, human Ror2; experiment: ELISA, human Ror2; ratio of signal at pH 6.0 to pH 7.4; remark: listed apart in the source

T1 sequence (Q01974 34-403 limits assumed): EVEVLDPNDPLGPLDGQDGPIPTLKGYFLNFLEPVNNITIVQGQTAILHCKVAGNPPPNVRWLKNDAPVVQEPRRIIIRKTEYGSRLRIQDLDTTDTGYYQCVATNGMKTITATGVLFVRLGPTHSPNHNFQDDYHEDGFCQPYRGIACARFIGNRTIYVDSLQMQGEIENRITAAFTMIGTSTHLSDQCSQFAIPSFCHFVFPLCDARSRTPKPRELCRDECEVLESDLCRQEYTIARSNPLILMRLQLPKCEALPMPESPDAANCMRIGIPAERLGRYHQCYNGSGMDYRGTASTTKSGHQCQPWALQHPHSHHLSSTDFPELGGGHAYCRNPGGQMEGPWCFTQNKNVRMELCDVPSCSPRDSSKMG

Affinity ELISA pH 7.4 [1]	ratio, pH 6.0/7.4 [2]	Affinity ELISA pH 6.0 [3]	Affinity ELISA pH 6.0 [4]	Affinity ELISA pH 7.4 [5]	ratio, pH 6.0/7.4 [6]	Binder
0.129	3.15	0.406				LC-V029E (antibody, V domains shown) VH: EVQLQQSGPELVKPGASVKISCKTSGYTFTEYTMHWMKQSHRKSLEWIGGINTNNGGTGYNQKFKGKATLTVDKSSSTAYMELRSLTSEDSAVYFCARGSLYSYGNSYFDYWGQGTLVTVSS VL: QIVLTQSPAIMSASPGEKVTITCSATSSESYMHWFQQKPGTSPKLWIYGTSNLASGVPARFSGSGSGTSYSLTISRMEAEDAATYYCQQRSSYPFTFGQGTKVEIK
			0.823	0.318	2.6	HC-G050S (antibody, V domains shown) VH: EVQLQQSGPELVKPGASVKISCKTSGYTFTEYTMHWMKQSHRKSLEWIGSINTNNGGTGYNQKFKGKATLTVDKSSSTAYMELRSLTSEDSAVYFCARGSLYSYGNSYFDYWGQGTLVTVSS VL: QIVLTQSPAIMSASPGEKVTITCSATSSVSYMHWFQQKPGTSPKLWIYGTSNLASGVPARFSGSGSGTSYSLTISRMEAEDAATYYCQQRSSYPFTFGQGTKVEIK
			0.54	0.157	3.44	HC-T053E (antibody, V domains shown) VH: EVQLQQSGPELVKPGASVKISCKTSGYTFTEYTMHWMKQSHRKSLEWIGGINENNGGTGYNQKFKGKATLTVDKSSSTAYMELRSLTSEDSAVYFCARGSLYSYGNSYFDYWGQGTLVTVSS VL: QIVLTQSPAIMSASPGEKVTITCSATSSVSYMHWFQQKPGTSPKLWIYGTSNLASGVPARFSGSGSGTSYSLTISRMEAEDAATYYCQQRSSYPFTFGQGTKVEIK
			1.04	0.1	10.4	HC-I051E (antibody, V domains shown) VH: EVQLQQSGPELVKPGASVKISCKTSGYTFTEYTMHWMKQSHRKSLEWIGGENTNNGGTGYNQKFKGKATLTVDKSSSTAYMELRSLTSEDSAVYFCARGSLYSYGNSYFDYWGQGTLVTVSS VL: QIVLTQSPAIMSASPGEKVTITCSATSSVSYMHWFQQKPGTSPKLWIYGTSNLASGVPARFSGSGSGTSYSLTISRMEAEDAATYYCQQRSSYPFTFGQGTKVEIK
			1.89	1.73	1.89	HC-A097I (antibody, V domains shown) VH: EVQLQQSGPELVKPGASVKISCKTSGYTFTEYTMHWMKQSHRKSLEWIGGINTNNGGTGYNQKFKGKATLTVDKSSSTAYMELRSLTSEDSAVYFCIRGSLYSYGNSYFDYWGQGTLVTVSS VL: QIVLTQSPAIMSASPGEKVTITCSATSSVSYMHWFQQKPGTSPKLWIYGTSNLASGVPARFSGSGSGTSYSLTISRMEAEDAATYYCQQRSSYPFTFGQGTKVEIK
0.405	2.25	0.911				LC-Y031D (antibody, V domains shown) VH: EVQLQQSGPELVKPGASVKISCKTSGYTFTEYTMHWMKQSHRKSLEWIGGINTNNGGTGYNQKFKGKATLTVDKSSSTAYMELRSLTSEDSAVYFCARGSLYSYGNSYFDYWGQGTLVTVSS VL: QIVLTQSPAIMSASPGEKVTITCSATSSVSDMHWFQQKPGTSPKLWIYGTSNLASGVPARFSGSGSGTSYSLTISRMEAEDAATYYCQQRSSYPFTFGQGTKVEIK
			1.24	0.211	5.9	HC-M034D (antibody, V domains shown) VH: EVQLQQSGPELVKPGASVKISCKTSGYTFTEYTDHWMKQSHRKSLEWIGGINTNNGGTGYNQKFKGKATLTVDKSSSTAYMELRSLTSEDSAVYFCARGSLYSYGNSYFDYWGQGTLVTVSS VL: QIVLTQSPAIMSASPGEKVTITCSATSSVSYMHWFQQKPGTSPKLWIYGTSNLASGVPARFSGSGSGTSYSLTISRMEAEDAATYYCQQRSSYPFTFGQGTKVEIK
			1.83	1.69	1.67	HC-A097T (antibody, V domains shown) VH: EVQLQQSGPELVKPGASVKISCKTSGYTFTEYTMHWMKQSHRKSLEWIGGINTNNGGTGYNQKFKGKATLTVDKSSSTAYMELRSLTSEDSAVYFCTRGSLYSYGNSYFDYWGQGTLVTVSS VL: QIVLTQSPAIMSASPGEKVTITCSATSSVSYMHWFQQKPGTSPKLWIYGTSNLASGVPARFSGSGSGTSYSLTISRMEAEDAATYYCQQRSSYPFTFGQGTKVEIK
			0.995	0.431	2.31	HC-N052C (antibody, V domains shown) VH: EVQLQQSGPELVKPGASVKISCKTSGYTFTEYTMHWMKQSHRKSLEWIGGICTNNGGTGYNQKFKGKATLTVDKSSSTAYMELRSLTSEDSAVYFCARGSLYSYGNSYFDYWGQGTLVTVSS VL: QIVLTQSPAIMSASPGEKVTITCSATSSVSYMHWFQQKPGTSPKLWIYGTSNLASGVPARFSGSGSGTSYSLTISRMEAEDAATYYCQQRSSYPFTFGQGTKVEIK
			0.903	0.391	2.31	HC-M034Y (antibody, V domains shown) VH: EVQLQQSGPELVKPGASVKISCKTSGYTFTEYTYHWMKQSHRKSLEWIGGINTNNGGTGYNQKFKGKATLTVDKSSSTAYMELRSLTSEDSAVYFCARGSLYSYGNSYFDYWGQGTLVTVSS VL: QIVLTQSPAIMSASPGEKVTITCSATSSVSYMHWFQQKPGTSPKLWIYGTSNLASGVPARFSGSGSGTSYSLTISRMEAEDAATYYCQQRSSYPFTFGQGTKVEIK
			1.67	1.69	1.67	HC-A097S (antibody, V domains shown) VH: EVQLQQSGPELVKPGASVKISCKTSGYTFTEYTMHWMKQSHRKSLEWIGGINTNNGGTGYNQKFKGKATLTVDKSSSTAYMELRSLTSEDSAVYFCSRGSLYSYGNSYFDYWGQGTLVTVSS VL: QIVLTQSPAIMSASPGEKVTITCSATSSVSYMHWFQQKPGTSPKLWIYGTSNLASGVPARFSGSGSGTSYSLTISRMEAEDAATYYCQQRSSYPFTFGQGTKVEIK
			1.17	0.185	6.3	HC-M034E (antibody, V domains shown) VH: EVQLQQSGPELVKPGASVKISCKTSGYTFTEYTEHWMKQSHRKSLEWIGGINTNNGGTGYNQKFKGKATLTVDKSSSTAYMELRSLTSEDSAVYFCARGSLYSYGNSYFDYWGQGTLVTVSS VL: QIVLTQSPAIMSASPGEKVTITCSATSSVSYMHWFQQKPGTSPKLWIYGTSNLASGVPARFSGSGSGTSYSLTISRMEAEDAATYYCQQRSSYPFTFGQGTKVEIK
			1.11	0.222	4.99	HC-T053D (antibody, V domains shown) VH: EVQLQQSGPELVKPGASVKISCKTSGYTFTEYTMHWMKQSHRKSLEWIGGINDNNGGTGYNQKFKGKATLTVDKSSSTAYMELRSLTSEDSAVYFCARGSLYSYGNSYFDYWGQGTLVTVSS VL: QIVLTQSPAIMSASPGEKVTITCSATSSVSYMHWFQQKPGTSPKLWIYGTSNLASGVPARFSGSGSGTSYSLTISRMEAEDAATYYCQQRSSYPFTFGQGTKVEIK
0.536	2.06	1.1				LC-H033G (antibody, V domains shown) VH: EVQLQQSGPELVKPGASVKISCKTSGYTFTEYTMHWMKQSHRKSLEWIGGINTNNGGTGYNQKFKGKATLTVDKSSSTAYMELRSLTSEDSAVYFCARGSLYSYGNSYFDYWGQGTLVTVSS VL: QIVLTQSPAIMSASPGEKVTITCSATSSVSYMGWFQQKPGTSPKLWIYGTSNLASGVPARFSGSGSGTSYSLTISRMEAEDAATYYCQQRSSYPFTFGQGTKVEIK
			1.98	1.7	1.98	HC-A097M (antibody, V domains shown) VH: EVQLQQSGPELVKPGASVKISCKTSGYTFTEYTMHWMKQSHRKSLEWIGGINTNNGGTGYNQKFKGKATLTVDKSSSTAYMELRSLTSEDSAVYFCMRGSLYSYGNSYFDYWGQGTLVTVSS VL: QIVLTQSPAIMSASPGEKVTITCSATSSVSYMHWFQQKPGTSPKLWIYGTSNLASGVPARFSGSGSGTSYSLTISRMEAEDAATYYCQQRSSYPFTFGQGTKVEIK
0.332	2.08	0.69				LC-H033L (antibody, V domains shown) VH: EVQLQQSGPELVKPGASVKISCKTSGYTFTEYTMHWMKQSHRKSLEWIGGINTNNGGTGYNQKFKGKATLTVDKSSSTAYMELRSLTSEDSAVYFCARGSLYSYGNSYFDYWGQGTLVTVSS VL: QIVLTQSPAIMSASPGEKVTITCSATSSVSYMLWFQQKPGTSPKLWIYGTSNLASGVPARFSGSGSGTSYSLTISRMEAEDAATYYCQQRSSYPFTFGQGTKVEIK
			0.87	0.34	2.56	HC-N052V (antibody, V domains shown) VH: EVQLQQSGPELVKPGASVKISCKTSGYTFTEYTMHWMKQSHRKSLEWIGGIVTNNGGTGYNQKFKGKATLTVDKSSSTAYMELRSLTSEDSAVYFCARGSLYSYGNSYFDYWGQGTLVTVSS VL: QIVLTQSPAIMSASPGEKVTITCSATSSVSYMHWFQQKPGTSPKLWIYGTSNLASGVPARFSGSGSGTSYSLTISRMEAEDAATYYCQQRSSYPFTFGQGTKVEIK
			0.911	0.433	2.1	HC-N052L (antibody, V domains shown) VH: EVQLQQSGPELVKPGASVKISCKTSGYTFTEYTMHWMKQSHRKSLEWIGGILTNNGGTGYNQKFKGKATLTVDKSSSTAYMELRSLTSEDSAVYFCARGSLYSYGNSYFDYWGQGTLVTVSS VL: QIVLTQSPAIMSASPGEKVTITCSATSSVSYMHWFQQKPGTSPKLWIYGTSNLASGVPARFSGSGSGTSYSLTISRMEAEDAATYYCQQRSSYPFTFGQGTKVEIK
